System: MS2 coat protein
Assay: apparent KD of MS2 coat protein; designed switch direction (-1 OFF switch, 1 ON switch): -1; higher = weaker reporter binding
Summary of the method: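 SNAP-549-labelled MS2 coat protein was titrated, doubling from 0.7 or 1.5 nM to 3 µM, over designed RNA switches transcribed on Illumina chips by stalled E. coli RNA polymerase. Runs were done without input, with 200 uM small-molecule ligand, or with an oligonucleotide input. Apparent KD is the per-design median over clusters of curve-fitted normalised fluorescence.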

[1] = input ligand: microRNA oligo, concentration not stated
[2] = Eterna round: R95, input ligand: microRNA oligo, concentration not stated

Sequence	apparent KD of MS2 coat protein (input ligand: FMN 200 uM) [nM]	apparent KD of MS2 coat protein (input ligand: none) [nM]	apparent KD of MS2 coat protein [2] [nM]	other results
AUUUGCACGCUGCGGUCCUACAUGAGGAUCACCCAUGUGGUCUGGUGGCGUGGGUCGCCGGACUUGGCUCGUCUUGA [salish99_S_TOV1_R5_032] (Eterna round: R97, puzzle: Sensor, turn-off variant 1)	17.5	17.9		
AGGUCACAUGAGGAUCACCCAUGUCAGGAUAUCGUCACUGGAGCUGCGGCUCCAGUGACGAGAAGGGACAAUUA [E1/6-A3] (Eterna round: R97, puzzle: Exclusion 1)	372	77.2		
GCGUACUGAGGAUAUACAUGAGGAUCACCCAUGUAACACAGCAUAUAUAGAUAUUUUUGUAGAAGGCAGUAUGC [JR_Ex3_Sub057] (Eterna round: R97, puzzle: Exclusion 3)	40.2	17.5		
GCUUGUGGGCAAGGAUAUCCUGCGCUGUUCUGGUUCGUGUCUGUCACAUGAGGAUCACCCAUGUGGGAGAAGGUGCCUUUGGUG [Design 64] (Eterna round: R96, puzzle: Exclusion NG 2)	13.4	14.9		apparent KD of MS2 coat protein [1]: 10.9 nM
AAAAGACAAGGAUAUACUUGGAAAAUAAAGCUUGAGGAAGUACUUGAGGAUCACCCAAGUAGAAGGUGUAGGCG [Edtiisre] (Eterna round: R97, puzzle: Exclusion 2)	37.7	31.5		
UUUCUGUGAGGAUAUCAGUAGUAAAUAAAUAAAAUUACUACUGAGAAGGCACAUGAGGAUCACCCAUGUUCCUU [salish99_ex3_r3_093] (puzzle: Exclusion 4)			13.1	
CCUCCACAUGAGGAUCACCCAUGUCAGGAUAUCGUGUGUGCUUUUUCGGUCUUUCGUGCGAGAAGGGACGUCUG (puzzle: Exclusion 1)			25.5	
GGAGGCCAGUAAGGAUAUUCAUGGUAGAUUCAUGAAGAAGGUACGGAGUGUCCUGACAUGAGGAUCACCCAUGUAGCCUCCAAG [Betien] (Eterna round: R96, puzzle: Exclusion NG 1)	76.4	34.3		apparent KD of MS2 coat protein [1]: 25.1 nM
AAUUAACAUCAGGAUAUGACUAGCGAUAGCUAGUCAGAAGGGAUGACAUGAGGAUCACCCAUGUGAUCAAUUAA [E6/2-A4] (Eterna round: R97, puzzle: Exclusion 6)	492	131		
ACAUGAGGAUCACCCAUGUCAGGCGGGUCCUCUCCGGCUGUUGAGGAUAUAGUUCGGUAUCCGCGCUAGAAGGUGAGGGCCGGC [Aenatbe mod 21] (Eterna round: R96, puzzle: Exclusion NG 3)	15.1	17.1		apparent KD of MS2 coat protein [1]: 9.99 nM
GCAGCAACUCUAAUCAACCAAACAUGAGGAUCACCCAUGUCUCAGGAUAUGGUCUGGAUUACAGGCCAGAAGGGAGAAAGCUGC [Eli exng3 - 044] (Eterna round: R96, puzzle: Exclusion NG 3)	9	13.4		apparent KD of MS2 coat protein [1]: 9.77 nM
UUUAAUUUUUUUUUUUUACAAGCUUUUUGCUCGUCUUAUACAUGAGGAUCACCCAUGUGGGUAGGAGGUAAAUUAUC [JMF 72] (puzzle: Sensor v3, turn-off variant 2)			50.4	apparent KD of MS2 coat protein (Eterna round: R95, input ligand: FMN 200 uM): 32.5 nM; apparent KD of MS2 coat protein (Eterna round: R95, input ligand: none): 35.5 nM
AUAUAGUCAGGAUAUCGAAGUGAGUGUUGGUGGGUAAGGUACGAGAAGGGACAUGAGGAUCACCCAUGUAGGAA [JR_Exclusion4)Sub004] (puzzle: Exclusion 4)			48	
GAUCAACAUGAGGAUCACCCAUGUGAGGAUAUGAUACUAUGUACUUCGGUACAUAGUAUCAGAAGGCAUGUAAA [Ex1-3: 78] (puzzle: Exclusion 1)			54.5	
CCGGGCCCGGGAGGAUAUACAUGAGGAUCACCCAUGUGGGCCCGGGCCCGCGGGCCCGGGCCCGUGUAGAAGGCCCGGGCCCGG [-64.8, -63.2 kcal, A 14%] (Eterna round: R96, puzzle: Exclusion NG 2)	27.2	19.9		apparent KD of MS2 coat protein [1]: 5.13 nM
CCCUCACAUGAGGAUCACCCAUGUCAGGAUAUCUAGUCAGACAGUGUAGCACUAAUGAAGAGAAGGGACGUAUG [Edtetidi] (puzzle: Exclusion 1)			23.9	
UUCGUGCAGCUUUGCUGUACGCGUACAUGAGGAUCACCCAUGUAGGAUAUGGUACGCUUUGCGUGCUAGAAGGAUAUGUGGAGG [JL EXNG3 1.35] (Eterna round: R96, puzzle: Exclusion NG 3)	59.1	45.2		apparent KD of MS2 coat protein [1]: 33.6 nM
CCGGAUAUGCAGGAUAUCGUAUCGGAAACGAUACGAGAAGGGUAUACAUGAGGAUCACCCAUGUGUCCUACCGG [Fiskers Ex 6 - 20] (puzzle: Exclusion 6)			23.8	
ACAAGCUAACUCAUAUCUUACAUGAGGAUCACCCAUGUUUUUUCAAUUUUGUUUGGUCUCCUUUGUGCUCGUCUUAU [JR_STOV1_Sub052] (Eterna round: R97, puzzle: Sensor, turn-off variant 1)	66	64.9		

Sequence	apparent KD of MS2 coat protein (input ligand: FMN 200 uM) [nM]	apparent KD of MS2 coat protein (input ligand: none) [nM]	apparent KD of MS2 coat protein [2] [nM]	other results
GCUGCGCGAGGAUAUGCGGUUCGCGCGGUGGCCCGUGGCGGACAUGAGGAUCACCCAUGUAGAAGGCGUGCGGG [Apr-15 SS2-59] (puzzle: Exclusion 2)			11.2	
AAAUUCUGAGGAUAUCGAUGUUUGUACAUGAGGAUCACCCAUGUCCUUUUUAUUUUUUCUCGAGAAGGCAGUGUAU [JR_E5_Sub100] (puzzle: Exclusion 5)			34.2	
UCCAGCAUACGGAGAUCCAACAUGAGGAUCACCCAUGUCUGGAAAGCUUUUUGCUUGUCUUAUCCGUCUCUGUGUGU [Design #7] (Eterna round: R97, puzzle: Sensor, turn-off variant 1)	32.7	35.8		
UAUUAAACAUAGGAUAUCGAAUAAAUCAUUUAACGAGAAGGAUGAACAUGAGGAUCACCCAUGUGGUAUCAUGG [Mat - Exclusion 6 - JL Mod - D14] (puzzle: Exclusion 6)			242	
AUCCUACAUGAGGAUCACCCAUGUCAGGAUAUCCAAGAAAUGUGGCCUGAUUGGCCACGGAGAAGGGACGGGUG [jl-ex1-4.60 ViennaUCT mod] (Eterna round: R97, puzzle: Exclusion 1)	47.2	45		
AGCCUACAUGAGGAUCACCCAUGUCAGGAUAUCUCGCGACAUGUCAAGUUCACGUUGCAGAGAAGGGACUCGGG [Ononxe] (puzzle: Exclusion 1)			47.8	
AAUUAAUAUCAGGAUAUGACGUGCGAUAGCACGUCAGAAGGGAUGACAUGAGGAUCACCCAUGUGAUCAAUUAA [E6/1-A4] (Eterna round: R97, puzzle: Exclusion 6)	150	33		
UUUUUGUGAGGAUAUCAGUAGUAGAACAAUAGUACUACUACUGAGAAGGCACAUGAGGAUCACCCAUGUUCCUC [Fiskers Ex 4 Super stable 44 mod 9] (puzzle: Exclusion 4)			52.6	
GGUGGACAUGAGGAUCACCCAUGUGAGGAUAUCGGCUGGCUAGCGGCGGACGGCUUCUCGAGAAGGCGCAUUGU [Exclusion 1 V83] (Eterna round: R96, puzzle: Exclusion 1)	68.8	64.5		apparent KD of MS2 coat protein [1]: 42.2 nM
CUUUAGCUAGGAUAUACAUGAGGAUCACCCAUGUUAGCGGUCCAUUGGGCCGCGGGUUGUAGAAGGAGCAUUAA [Azabeso] (puzzle: Exclusion 3)			25.3	
CCGGAAUUACAGGAUAUAGGAGUCGAUAGACACCUAGAAGGGUAGACAUGAGGAUCACCCAUGUGUCCUACCGG [Fiskers Ex 6 - 85] (puzzle: Exclusion 6)			176	
CAUAGUUACUCAGGAUAUAGUACAUGAGGAUCACCCAUGUAAUAAAUGAGAAUUUCGAAUGUAUACUAGAAGGGAGAAAUCUAC [Ostracism 55 - Jieux - Exclusion NG 2] (Eterna round: R96, puzzle: Exclusion NG 2)	44.5	46.1		apparent KD of MS2 coat protein [1]: 35.8 nM
AGCUGUGGCCGAGGAUAUAUACAUGAGGAUCACCCAUGUAGGUGCGGAUACUCGCACCAAUAAGUGUAGAAGGCGGUCUCAGCA [Eli eng2 - 058] (Eterna round: R96, puzzle: Exclusion NG 2)	10.7	13.3		apparent KD of MS2 coat protein [1]: 13.1 nM
GGGAGUGAAGGAUAUACAUGAGGAUCACCCAUGUGGGAGGAGAGAGGUGAGGAGGCUGGUAGAAGGUCAGGAUG [JR_Exclusion3_Sub006] (puzzle: Exclusion 3)			48.3	
AUUGUGUUAGGAUAUGCUUAUGGUGGGUAGUCCAGUAUGGAGUAGAAGGGACAUGAGGAUCACCCAUGUGCUCA [EX4 #38] (Eterna round: R97, puzzle: Exclusion 4)	215	137		
CCCGGAUCAACUCCCGGGAACAACAUGAGGAUCACCCAUGUCUAGGAUAUCCACCAGUCAAUAAAGGAGAAGGAGACGGUGGUU [Raesessoqu] (Eterna round: R96, puzzle: Exclusion NG 3)	32.5	30.5		apparent KD of MS2 coat protein [1]: 23.3 nM
CUGAGCAGACGGAGAUCCAACAUGAGGAUCACCCAUGUCUCAAAAGCUUUUUGCUUGUCUUAUCCUCCUCUGUUCAC [Esqutian] (Eterna round: R96, puzzle: Sensor v3, turn-off variant 1)	13.6	16.1		apparent KD of MS2 coat protein [1]: 222 nM
GGUUUGGGAGGAUAUGGUUUGAAUAACAUGAGGAUCACCCAUGUAAAUAGAUCUUCCGGGCCAGAAGGCUCGGGCC [-23.9, -21.52 kcal, A 26%] (Eterna round: R97, puzzle: Exclusion 5)	29.5	34.6		
